{"source": "paper doi:10.1101/2021.03.22.436414", "about": "(bioRxiv, 2021)", "proteins": {"B1": {"name": "Recombinant S. cerevisiae septin octamer capped with Cdc11-SNAP (Cdc11-Cdc12-Cdc3-Cdc10-Cdc10-Cdc3-Cdc12-Cdc11) (complex)", "chain 1": "MSGIIDASSALRKRKHLKRGITFTVMIVGQSGSGRSTFINTLCGQQVVDTSTTILLPTDTSTEIDLQLREETVELEDDEGVKIQLNIIDTPGFGDSLDNSPSFEIISDYIRHQYDEILLEESRVRRNPRFKDGRVHCCLYLINPTGHGLKEIDVEFIRQLGSLVNIIPVISKSDSLTRDELKLNKKLIMEDIDRWNLPIYNFPFDEDEISDEDYETNMYLRTLLPFAIIGSNEVYEMGGDVGTIRGRKYPWGILDVEDSSISDFVILRNALLISHLHDLKNYTHEILYERYRTEALSGESVAAESIRPNLTKLNGSSSSSTTTRRNTNPFKQSNNINNDVLNPASDMHGQSTGENNETYMTREEQIRLEEERLKAFEERVQQELLLKRQELLQREKELREIEARLEKEAKIKQEE", "chain 2": "MSAATATAAPVPPPVGISNLPNQRYKIVNEEGGTFTVMLCGESGLGKTTFINTLFQTVLKRADGQQHRQEPIRKTVEIDITRALLEEKHFELRVNVIDTPGFGDNVNNNKAWQPLVDFIDDQHDSYMRQEQQPYRTKKFDLRVHAVLYFIRPTGHGLKPIDIETMKRLSTRANLIPVIAKADTLTAQELQQFKSRIRQVIEAQEIRIFTPPLDADSKEDAKSGSNPDSAAVEHARQLIEAMPFAIVGSEKKFDNGQGTQVVARKYPWGLVEIENDSHCDFRKLRALLLRTYLLDLISTTQEMHYETYRRLRLEGHENTGEGNEDFTLPAIAPARKLSHNPRYKEEENALKKYFTDQVKAEEQRFRQWEQNIVNERIRLNGDLEEIQGKVKKLEEQVKSLQVKKSHLK", "chain 3": "MSLKEEQVSIKQDPEQEERQHDQFNDVQIKQESQDHDGVDSQYTNGTQNDDSERFEAAESDVKVEPGLGMGITSSQSEKGQVLPDQPEIKFIRRQINGYVGFANLPKQWHRRSIKNGFSFNLLCVGPDGIGKTTLMKTLFNNDDIEANLVKDYEEELANDQEEEEGQGEGHENQSQEQRHKVKIKSYESVIEENGVKLNLNVIDTEGFGDFLNNDQKSWDPIIKEIDSRFDQYLDAENKINRHSINDKRIHACLYFIEPTGHYLKPLDLKFMQSVYEKCNLIPVIAKSDILTDEEILSFKKTIMNQLIQSNIELFKPPIYSNDDAENSHLSERLFSSLPYAVIGSNDIVENYSGNQVRGRSYPWGVIEVDNDNHSDFNLLKNLLIKQFMEELKERTSKILYENYRSSKLAKLGIKQDNSVFKEFDPISKQQEEKTLHEAKLAKLEIEMKTVFQQKVSEKEKKLQKSETELFARHKEMKEKLTKQLKALEDKKKQLELSINSASPNVNHSPVPTKKKGFLR", "chain 4": "MDPLSSVQPASYVGFDTITNQIEHRLLKKGFQFNIMVVGQSGLGKSTLINTLFASHLIDSATGDDISALPVTKTTEMKISTHTLVEDRVRLNINVIDTPGFGDFIDNSKAWEPIVKYIKEQHSQYLRKELTAQRERFITDTRVHAILYFLQPNGKELSRLDVEALKRLTEIANVIPVIGKSDTLTLDERTEFRELIQNEFEKYNFKIYPYDSEELTDEELELNRSVRSIIPFAVVGSENEIEINGETFRGRKTRWSAINVEDINQCDFVYLREFLIRTHLQDLIETTSYIHYEGFRARQLIALKENANSRSSAHMSSNAIQR", "modifications": "Alexafluor488 dye on the SNAP tag"}}, "target": "the molecule itself", "assay": "TIRF microscopy of filament lengths at steady state", "data": [{"protein": "B1", "values": [{"measurement": "Kd", "value": "84.5 ± 8.5", "unit": "nM"}]}]}
